Experiments:
[1] = molecular target: T1, CD73 on cell membrane surface (MDA-MB-231, U87-MG) (human, UniProt P21589 27-549); assay: cell-based or functional assay
T1 sequence (looked up): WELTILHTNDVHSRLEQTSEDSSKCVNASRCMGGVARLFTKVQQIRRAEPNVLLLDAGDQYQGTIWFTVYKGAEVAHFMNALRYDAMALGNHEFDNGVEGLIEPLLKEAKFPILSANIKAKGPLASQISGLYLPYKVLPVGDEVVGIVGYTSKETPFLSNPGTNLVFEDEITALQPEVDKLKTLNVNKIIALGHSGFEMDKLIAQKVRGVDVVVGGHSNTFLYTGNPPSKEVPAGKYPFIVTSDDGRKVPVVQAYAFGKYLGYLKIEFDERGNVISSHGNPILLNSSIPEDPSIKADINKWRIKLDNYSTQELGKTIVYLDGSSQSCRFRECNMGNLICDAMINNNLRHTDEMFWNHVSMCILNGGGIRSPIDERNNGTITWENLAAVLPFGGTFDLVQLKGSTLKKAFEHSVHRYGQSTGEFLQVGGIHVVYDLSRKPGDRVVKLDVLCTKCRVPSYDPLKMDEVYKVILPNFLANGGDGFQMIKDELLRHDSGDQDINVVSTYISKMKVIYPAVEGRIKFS

[2] = molecular target: T1, CD73 on cell membrane surface …; assay: flow cytometry, MDA-MB-231 cells
Description: (§1) MDA-MB-231 cells in logarithmic phase were digested with conventional trypsin and transferred to a 1.5 mL centrifuge tube at 3×10⁵ cells/tube. 500 μL of PBSA was added, and the mixture was centrifuged at 5600 rpm for 5 min to remove the supernatant. […] The system was mixed gently and uniformly, and then was incubated on ice for 1 h. Then 500 μL of PBSA was added, and the mixture was centrifuged at 5600 rpm for 5 min to remove the supernatant. […] 500 μL of PBSA was added, and the mixture was centrifuged at 5600 rpm for 5 min to remove the supernatant. At last, 200 μL of PBSA was added to resuspend cell precipitates, and the mixture was transferred to a flow tube for FACSCalibur detection.

[3] = molecular target: T1, CD73 on cell membrane surface …; assay: flow cytometry, MDA-MB-231 cells; antibody 0.05 nM
Description: as §1

[4] = molecular target: T1, CD73 on cell membrane surface …; assay: flow cytometry, MDA-MB-231 cells; antibody 0.14 nM
Description: as §1

[5] = molecular target: T1, CD73 on cell membrane surface …; assay: flow cytometry, MDA-MB-231 cells; antibody 0.41 nM
Description: as §1

[6] = molecular target: T1, CD73 on cell membrane surface …; assay: flow cytometry, MDA-MB-231 cells; antibody 1.23 nM
Description: as §1

[7] = molecular target: T1, CD73 on cell membrane surface …; assay: flow cytometry, MDA-MB-231 cells; antibody 3.70 nM
Description: as §1

[8] = molecular target: T1, CD73 on cell membrane surface …; assay: flow cytometry, MDA-MB-231 cells; antibody 11.11 nM
Description: as §1

[9] = molecular target: T1, CD73 on cell membrane surface …; assay: flow cytometry, MDA-MB-231 cells; antibody 33.33 nM
Description: as §1

[10] = molecular target: T1, CD73 on cell membrane surface …; assay: flow cytometry, MDA-MB-231 cells; antibody 100.00 nM
Description: as §1

PD-1-mFc [11] = molecular target: T2, PD-1-mFc (human, UniProt Q15116 25-170, limits assumed); assay: ELISA, PD-1-mFc coated
T2 construct: also called human PD-1-mFc
Description: (§2) A microplate was coated with PD-1-mFc at 0.5 μg/mL and incubated at 4° C. overnight. Then the microplate coated with antigens was washed once with PBST, and then blocked with a PBS solution containing 1% BSA as blocking solution at 37° C. for 2 h. After blocking, the microplate was washed 3 times with PBST. The microplate containing the test antibodies was incubated at 37° C. for 30 min, and then washed 3 times with PBST. […] After incubation, the plate was washed 4 times with PBST, TMB (Neogen, 308177) was added in the dark for chromogenesis for 5 min, and then a stop solution was added to terminate chromogenic reaction. The microplate was put into a microplate reader immediately, and the OD value of each well in the microplate was read at 450 nm. The data were analyzed and processed by SoftMax Pro 6.2.1,

[12] = molecular target: T3, PD-1 on 293T-PD1 cell surface (human, UniProt Q15116 25-288); assay: flow cytometry, 293T-PD1 cells
T3 construct: whole, on cells
Description: as §1, with “500” for “MDA-MB-231 cells in logarithmic phase were digested with conventional trypsin and transferred to a 1.5 mL centrifuge tube at 3×10⁵ cells/tube. 500”

human NT5E-Biotin = molecular target: T4, human NT5E-Biotin (human, UniProt P21589 27-552, limits assumed, biotin label, site not stated); assay: ELISA, NT5E-biotin on streptavidin
T4 construct: Captured on streptavidin-coated plates; also called human NTSE-Biotin
T4 sequence (looked up): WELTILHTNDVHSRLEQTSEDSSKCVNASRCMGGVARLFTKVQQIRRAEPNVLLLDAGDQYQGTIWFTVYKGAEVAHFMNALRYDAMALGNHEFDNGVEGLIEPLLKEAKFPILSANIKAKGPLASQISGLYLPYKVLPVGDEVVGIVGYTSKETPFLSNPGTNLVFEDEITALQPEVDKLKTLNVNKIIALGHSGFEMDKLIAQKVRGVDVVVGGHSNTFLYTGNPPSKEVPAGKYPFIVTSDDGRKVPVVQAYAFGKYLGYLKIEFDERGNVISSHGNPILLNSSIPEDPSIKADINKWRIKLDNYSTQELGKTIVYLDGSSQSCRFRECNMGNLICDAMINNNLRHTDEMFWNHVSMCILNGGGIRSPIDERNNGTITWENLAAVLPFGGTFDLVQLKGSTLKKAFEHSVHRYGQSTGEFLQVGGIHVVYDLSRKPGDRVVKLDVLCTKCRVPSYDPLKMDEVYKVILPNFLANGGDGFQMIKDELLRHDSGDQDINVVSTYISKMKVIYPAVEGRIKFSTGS
Description: A microplate was coated with streptavidin at 2 μg/mL and then incubated at 4° C. overnight. After incubation, the microplate coated with streptavidin was washed once with PBST, and blocked with a PBS solution containing 1% BSA as a microplate blocking solution at 37° C. for 2 h. After blocking, the microplate was washed 3 times with PBST. Then, 0.5 μg/mL antigen human NTSE-Biotin was added and incubated at 37° C. for 30 min. Then, the plate was washed 3 times with PBST. The antibodies serially diluted with PBST solution (the dilution gradients for the antibody are shown in Table 3) were added to wells of the microplate. The microplate containing the test antibodies was incubated at 37° C. for 30 min, and then washed 3 times with PBST. […] After incubation, the plate was washed 4 times with PBST, TMB (Neogen, 308177) was added in the dark for chromogenesis for 5 min, and then a stop solution was added to terminate chromogenic reaction. The microplate was put into a microplate reader immediately, and the OD value of each well in the microplate was read at 450 nm. The data were analyzed and processed by SoftMax Pro 6.2.1.

[13] = molecular target: T3, PD-1 on 293T-PD1 cell surface; assay: flow cytometry, 293T-PD1 cells; antibody 0.05 nM
Description: as §1, with “500” for “MDA-MB-231 cells in logarithmic phase were digested with conventional trypsin and transferred to a 1.5 mL centrifuge tube at 3×10⁵ cells/tube. 500”

[14] = molecular target: T3, PD-1 on 293T-PD1 cell surface; assay: flow cytometry, 293T-PD1 cells; antibody 0.14 nM
Description: as §1, with “500” for “MDA-MB-231 cells in logarithmic phase were digested with conventional trypsin and transferred to a 1.5 mL centrifuge tube at 3×10⁵ cells/tube. 500”

[15] = molecular target: T3, PD-1 on 293T-PD1 cell surface; assay: flow cytometry, 293T-PD1 cells; antibody 0.41 nM
Description: as §1, with “500” for “MDA-MB-231 cells in logarithmic phase were digested with conventional trypsin and transferred to a 1.5 mL centrifuge tube at 3×10⁵ cells/tube. 500”

[16] = molecular target: T3, PD-1 on 293T-PD1 cell surface; assay: flow cytometry, 293T-PD1 cells; antibody 1.23 nM
Description: as §1, with “500” for “MDA-MB-231 cells in logarithmic phase were digested with conventional trypsin and transferred to a 1.5 mL centrifuge tube at 3×10⁵ cells/tube. 500”

[17] = molecular target: T3, PD-1 on 293T-PD1 cell surface; assay: flow cytometry, 293T-PD1 cells; antibody 3.70 nM
Description: as §1, with “500” for “MDA-MB-231 cells in logarithmic phase were digested with conventional trypsin and transferred to a 1.5 mL centrifuge tube at 3×10⁵ cells/tube. 500”

[18] = molecular target: T3, PD-1 on 293T-PD1 cell surface; assay: flow cytometry, 293T-PD1 cells; antibody 11.11 nM
Description: as §1, with “500” for “MDA-MB-231 cells in logarithmic phase were digested with conventional trypsin and transferred to a 1.5 mL centrifuge tube at 3×10⁵ cells/tube. 500”

[19] = molecular target: T3, PD-1 on 293T-PD1 cell surface; assay: flow cytometry, 293T-PD1 cells; antibody 33.33 nM
Description: as §1, with “500” for “MDA-MB-231 cells in logarithmic phase were digested with conventional trypsin and transferred to a 1.5 mL centrifuge tube at 3×10⁵ cells/tube. 500”

[20] = molecular target: T3, PD-1 on 293T-PD1 cell surface; assay: flow cytometry, 293T-PD1 cells; antibody 100.00 nM
Description: as §1, with “500” for “MDA-MB-231 cells in logarithmic phase were digested with conventional trypsin and transferred to a 1.5 mL centrifuge tube at 3×10⁵ cells/tube. 500”

PD-1-mFc [21] = molecular target: T2, PD-1-mFc; assay: ELISA, PD-1-mFc coated; antibody 1 ug/mL diluted 1:27
Description: as §2

human PD-1-mFc-biotin = human PD-1-mFc-biotin (human, UniProt Q15116 25-170, limits assumed, biotin label, site not stated); assay: competitive ELISA, blocking of PD-1-mFc-biotin binding to coated PD-L1-mFc
Description: After incubation, the microplate was blocked with a PBS solution containing 1% BSA at 37° C. for 2 h. After blocking, the plate was washed three times and dried. The antibody was serially diluted to 7 concentrations in a gradient ratio of 1:3 on a dilution plate with 10 μg/mL as the starting concentration, and a blank control was set. […] Then the mixture after reaction was added to the coated microplate, and the microplate was incubated for at 37° C. for 30 min. After incubation, the plate was washed three times with PBST and dried. SA-HRP (KPL, 14-30-00) working solution was added, and the plate was incubated at 37° C. for 30 min. After incubation, the plate was washed four times and patted dry. Then TMB (Neogen, 308177) was added in the dark for chromogenesis for 5 min, and a stop solution was added to terminate chromogenic reaction. Then the microplate was put into a microplate reader immediately, and the OD value of each well in the microplate was read at 450 nm. The data were analyzed and processed by SoftMax Pro 6.2.1.

T3 sequence (Q15116 25-288): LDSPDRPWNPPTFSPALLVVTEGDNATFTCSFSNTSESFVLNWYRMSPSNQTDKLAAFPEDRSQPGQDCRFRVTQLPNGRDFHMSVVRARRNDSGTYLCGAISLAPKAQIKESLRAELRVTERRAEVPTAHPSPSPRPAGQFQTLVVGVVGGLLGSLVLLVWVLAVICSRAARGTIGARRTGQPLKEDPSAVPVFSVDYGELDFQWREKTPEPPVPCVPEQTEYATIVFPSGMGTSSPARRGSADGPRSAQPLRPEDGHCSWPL
T2 sequence (Q15116 other isoform, or with tags, fused parts or gaps limits assumed): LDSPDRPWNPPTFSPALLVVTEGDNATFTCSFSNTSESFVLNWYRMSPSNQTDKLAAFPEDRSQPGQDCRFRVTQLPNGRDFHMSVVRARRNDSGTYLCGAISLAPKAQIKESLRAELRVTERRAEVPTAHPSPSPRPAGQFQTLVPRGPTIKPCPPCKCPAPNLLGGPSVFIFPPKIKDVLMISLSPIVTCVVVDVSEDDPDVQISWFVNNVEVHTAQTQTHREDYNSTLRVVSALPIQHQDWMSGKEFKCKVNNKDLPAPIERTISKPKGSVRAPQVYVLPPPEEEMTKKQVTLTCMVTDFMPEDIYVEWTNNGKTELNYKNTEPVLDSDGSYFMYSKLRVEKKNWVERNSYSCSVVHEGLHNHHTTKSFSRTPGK
human PD-1-mFc-biotin, sequence (Q15116 other isoform, or with tags, fused parts or gaps limits assumed): as above

B1: MEDI9447 (antibody, V domains shown)
VH: EVQLLESGGGLVQPGGSLRLSCAASGFTFSSYAYSWVRQAPGKGLEWVSAISGSGGRTYYADSVKGRFTISRDNSKNTLYLQMNSLRAEDTAVYYCARLGYGRVDEWGRGTLVTVSS
VL: QSVLTQPPSASGTPGQRVTISCSGSLSNIGRNPVNWYQQLPGTAPKLLIYLDNLRLSGVPDRFSGSKSGTSASLAISGLQSEDEADYYCATWDDSHPGWTFGGGTKLTVLG
With B1 the “IC50 (nM), inhibition of enzyme activity of CD73 on U87-MG cell membrane surface” value [1] was 0.119 nM, the EC50 [2] was 1.59 nM and the FACS signal [3] was 32.6. It also gave an FACS signal [4] of 64.4, an FACS signal [5] of 158 and an FACS signal [6] of 389. For the same binder, the FACS signal [7] was 698, the FACS signal [8] was 829 and the FACS signal [9] was 930. For the same binder, the FACS signal [10] was 878.

B2: P1D7V04R (bispecific antibody, human IgG1, kappa)
heavy: not shown
light: DIQMTQSPSSMSASVGDRVTFTCRASQDINTYLSWFQQKPGKSPKTLIYRANRLVSGVPSRFSGSGSGQDYTLTISSLQPEDMATYYCLQYDEFPLTFGAGTKLELKRTVAAPSVFIFPPSDEQLKSGTASVVCLLNNFYPREAKVQWKVDNALQSGNSQESVTEQDSKDSTYSLSSTLTLSKADYEKHKVYACEVTHQGLSSPVTKSFNRGEC
notes: Morrison form IgG-scFv
Binder B2 has an EC50 (PD-1-mFc [11]) of 0.089 nM, an EC50 [12] of 1.57 nM and an EC50 (human NT5E-Biotin) of 0.439 nM. For the same binder, the FACS signal [13] was 24.8, the FACS signal [14] was 52.4 and the FACS signal [15] was 113. For the same binder, the FACS signal [16] was 289, the FACS signal [17] was 467 and the FACS signal [18] was 1280. The FACS signal [19] was 400, the FACS signal [20] was 361 and the OD450 (PD-1-mFc [21]) was 1.66 OD. The EC50 (human PD-1-mFc-biotin) was 1.34 nM.
